{"source": "paper PMC11179147", "about": "(Nature, 2023)", "key": {"[1]": {"molecular_target": "full-length R109A/K111A METTL1, unlabeled (human, UniProt Q9UBP6 1-276, R109A | K111A)", "experiment": "NMR titration"}, "[2]": {"molecular_target": "full-length WT METTL1, unlabeled (without WDR4) (human, UniProt Q9UBP6 1-276)", "experiment": "NMR titration"}}}
{"binder": "METTL1 1-75 (N-terminal segment of METTL1), isotope-labelled (domain or fragment, human, UniProt Q9UBP6 1-75, looked up) MAAETRNVAGAEAPPPQKRYYRQRAHSNPMADHTLRYPVKPEEMDWSELYPEFFAPLTQNQSHDDPKDKKEKRAQ", "values": [{"measurement": "binding result", "setting": "[1]", "value": "binds"}, {"measurement": "binding result", "setting": "[2]", "value": "binds"}]}
{"binder": "S27D METTL1 1-75, isotope-labelled (domain or fragment, human, UniProt Q9UBP6 1-75, looked up) MAAETRNVAGAEAPPPQKRYYRQRAHDNPMADHTLRYPVKPEEMDWSELYPEFFAPLTQNQSHDDPKDKKEKRAQ", "values": [{"measurement": "binding result", "setting": "[2]", "value": "binds"}]}
